Laboratory results reported in patent US20120231013A1.

Target: recombinant TIMP-3 (human or mouse; Table 2 does not say which)
Test: AlphaScreen, biotinylated TIMP-3, Assay 1

recombinant TIMP-3 (human or mouse; Table 2 does not say which), sequence (P35625 24-211): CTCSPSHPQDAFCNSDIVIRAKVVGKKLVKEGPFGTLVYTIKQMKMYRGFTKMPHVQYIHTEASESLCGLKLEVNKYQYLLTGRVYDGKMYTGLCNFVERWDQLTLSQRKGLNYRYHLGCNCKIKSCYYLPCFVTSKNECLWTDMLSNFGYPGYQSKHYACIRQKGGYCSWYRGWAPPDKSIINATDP

total signal (cps): 2200 cps
Binder: CNASSQFLCSSGRCVAEALLCNGQDDCGDSSDERGCHINE [LRP-1 peptide LA20]
